From paper doi:10.1101/2025.02.16.638521 (bioRxiv, 2025) come the findings set out here.

A word on the stoichiometry N: it is a count of units in the complex or per binding partner.

Assay [1] deals with tagless Themis^1-563 (co-expressed with His-tagged Grb2^FL) (human, UniProt Q8N1K5). Put plainly: cryo-EM structure.
Assay [2] deals with T1, Themis^1-563 (truncated Themis, residues 1-563) (human, UniProt Q8N1K5). Put plainly: cryo-EM structure.
Assay [3] concerns the target Themis^1-563-Grb2^FL complex (co-expressed, pre-formed) (human, UniProt Q8N1K5;P62993). Put plainly: SEC-MALS. In general terms: Size exclusion chromatography separates by hydrodynamic size, large species first.
The target in assay [4] is T1, Themis^1-563 (truncated Themis, …). Put plainly: BLI.
For assay [5], the target named is full-length Grb2 (Grb2^FL) (human, UniProt P62993 1-217). Put plainly: SEC-MALS.
Sequence of full-length Grb2 (Grb2^FL) (P62993 whole entry): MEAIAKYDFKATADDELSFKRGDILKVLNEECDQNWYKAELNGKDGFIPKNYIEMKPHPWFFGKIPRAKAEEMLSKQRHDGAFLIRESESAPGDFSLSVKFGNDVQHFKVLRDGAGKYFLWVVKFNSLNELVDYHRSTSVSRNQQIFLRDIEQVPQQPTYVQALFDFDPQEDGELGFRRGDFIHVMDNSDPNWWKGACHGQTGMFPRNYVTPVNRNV

Sequence of Themis^1-563-Grb2^FL complex (co-expressed, pre-formed) (P62993 whole entry, the tested form may be a part, one chain of several): as the sequence (P62993 whole entry) above

B1: PMb256 (Pro-Macrobody of Nb256) (VHH)
VHH: QVQLQESGGGLVQAGGSLRLSCAASGRTFSTYAMGWFRQAPGKEREFVAAILWSDGSTYYADSVKGRFTISRDNAKNTVYLQMNSLKPEDTAVYYCAADYTGVRYDYWGQGTQVTVPP
Consider B1, for which the binding result in assay [1] and in assay [2] was “binds” throughout.

B2: Nb256 (Themis-specific single domain VHH camelid antibody fragment) (VHH)
VHH: QVQLQESGGGLVQAGGSLRLSCAASGRTFSTYAMGWFRQAPGKEREFVAAILWSDGSTYYADSVKGRFTISRDNAKNTVYLQMNSLKPEDTAVYYCAADYTGVRYDYWGQGTQVTVPP
In the case of B2, the binding result in assay [3] and in assay [4] was “binds” throughout.

B3: tagless Themis^1-563 (co-expressed with His-tagged Grb2^FL) (domain or fragment)
chain: MALSLEEFVHSLDLRTLPRVLEIQAGIYLEGSIYEMFGNECCFSTGEVIKITGLKVKKIIAEICEQIEGCESLQPFELPMNFPGLFKIVADKTPYLTMEEITRTIHIGPSRLGHPCFYHQKDIKLENLIIKQGEQIMLNSVEEIDGEIMVSCAVARNHQTHSFNLPLSQEGEFYECEDERIYTLKEIVEWKIPKNRTRTVNLTDFSNKWDSTNPFPKDFYGTLILKPVYEIQGVMKFRKDIIRILPSLDVEVKDITDSYDANWFLQLLSTEDLFEMTSKEFPIVTEVIEAPEGNHLPQSILQPGKTIVIHKKYQASRILASEIRSNFPKRHFLIPTSYKGKFKRRPREFPTAYDLEIAKSEKEPLHVVATKAFHSPHDKLSSVSVGDQFLVHQSETTEVLCEGIKKVVNVLACEKILKKSYEAALLPLYMEGGFVEVIHDKKQYPISELCKQFRLPFNVKVSVRDLSIEEDVLAATPGLQLEEDITDSYLLISDFANPTECWEIPVGRLNMTVQLVSNFSRDAEPFLVRTLVEEITEEQYYMMRRYESSASHPPPRPPKHPSV
Regarding B3, in assay [5], the “stoichiometry N” value was found to be 1.
